Data reported in patent publication US20230114801A1 (SYSTIMMUNE, published 2023).

B1: SI-75P6 (other)
chain 1: DVVMTQSPSTLSASVGDRVTINCQASESISSWLAWYQQKPGKAPKLLIYEASKLASGVPSRFSGSGSGTEFTLTISSLQPDDFATYYCQGYFYFISRTYVNSFGGGTKVEIKGGGGSGGGGSGGGGSGGGGSEVQLVESGGGLVQPGGSLRLSCAASGFTISTNAMSWVRQAPGKGLEWIGVITGRDITYYASWAKGRFTISRDNSKNTLYLQMNSLRAEDTAVYYCARDGGSSAITSNNIWGQGTLVTVSSGGGGSGGGGSQVQLQQSGPGLVKPSETLSITCTVSGFSLTNYGVHWIRQAPGKGLEWLGVIWSGGNTDYNTPFTSRFTITKDNSKNQVYFKLRSVRADDTAIYYCARALTYYDYEFAYWGQGTLVTVSSASTKGPSVFPLAPSSKSTSGGTAALGCLVKDYFPEPVTVSWNSGALTSGVHTFPAVLQSSGLYSLSSVVTVPSSSLGTQTYICNVNHKPSNTKVDKRVEPKSCDKTHTCPPCPAPEAAGGPSVFLFPPKPKDTLMISRTPEVTCVVVDVSHEDPEVKFNWYVDGVEVHNAKTKPREEQYNSTYRVVSVLTVLHQDWLNGKEYKCAVSNKALPAPIEKTISKAKGQPREPQVYTLPPSRDELTKNQVSLSCAVKGFYPSDIAVEWESNGQPENNYKTTPPVLDSDGSFFLVSKLTVDKSRWQQGNVFSCSVMHEALHNHYTQKSLSLSPGGGGGSGGGGSDVVMTQSPSSVSASVGDRVTITCQASQNIRTYLSWYQQKPGKAPKLLIYAAANLASGVPSRFSGSGSGTDFTLTISDLEPGDAATYYCQSTYLGTDYVGGAFGGGTKLTVLGGGGSGGGGSGGGGSGGGGSEVQLVESGGGLVQPGGSLRLSCTASGFTISSYHMQWVRQAPGKGLEYIGTISSGGNVYYASSARGRFTISRPSSKNTVDLQMNSLRAEDTAVYYCARDSGYSDPMWGQGTLVTVSS
chain 2: QSALTQPASVSGSPGQSITISCTGTSSDVGGYNFVSWYQQHPGKAPKLMIYDVSDRPSGVSDRFSGSKSGNTASLIISGLQADDEADYYCSSYGSSSTHVIFGGGTKVTVLGGGGSGGGGSGGGGSGGGGSQVQLQESGGGLVKPGGSLSLSCAASGFTFSSYWMSWVRQAPGKGLEWVANINRDGSASYYVDSVKGRFTISRDDAKNSLYLQMNSLRAEDTAVYYCARDRGVGYFDLWGRGTLVTVSSGGGGSGGGGSEIVLTQSPSTLSVSPGERATFSCRASQSIGTNIHWYQQKPGKPPRLLIKYASESISGIPDRFSGSGSGTEFTLTISSVQSEDFAVYYCQQNNNWPTTFGPGTKLTVLRTVAAPSVFIFPPSDEQLKSGTASVVCLLNNFYPREAKVQWKVDNALQSGNSQESVTEQDSKDSTYSLSSTLTLSKADYEKHKVYACEVTHQGLSSPVTKSFNRGECGGDKTHTCPPCPAPEAAGGPSVFLFPPKPKDTLMISRTPEVTCVVVDVSHEDPEVKFNWYVDGVEVHNAKTKPREEQYNSTYRVVSVLTVLHQDWLNGKEYKCAVSNKALPAPIEKTISKAKGQPREPQVYTLPPSRDELTKNQVSLWCLVKGFYPSDIAVEWESNGQPENNYKTTPPVLDSDGSFFLYSKLTVDKSRWQQGNVFSCSVMHEALHNRFTQKSLSLSPGGGGGSGGGGSDIQMTQSPSTLSASVGDRVTITCQASQSISSHLNWYQQKPGKAPKLLIYKASTLASGVPSRFSGSGSGTEFTLTISSLQPDDFATYYCQQGYSWGNVDNVFGGGTKVTVLGGGGSGGGGSGGGGSGGGGSEVQLLESGGGLVQPGGSLSLSCAASGFSFSSGYDMCWVRQAPGKGLEWIACIAAGSAGITYDANWAKGRFTISRDNSKNTLYLQMNSLRAEDTAVYYCARSAFSFDYAMDLWGQGTLVTVSS
notes: penta-miniGNC, IgG1 knobs-into-holes heterodimer; D1 αCD3, D2 αHER3, D3 αEGFR (Fab), D4 α4-1BB, D5 αPD-L1; also called penta-miniGNC (SI-75P6)
B2: SI-75E2 (other)
chain 1: EIVLTQSPSTLSVSPGERATFSCRASQSIGTNIHWYQQKPGKPPRLLIKYASESISGIPDRFSGSGSGTEFTLTISSVQSEDFAVYYCQQNNNWPTTFGPGTKLTVLGGGGSGGGGSGGGGSGGGGSQVQLQQSGPGLVKPSETLSITCTVSGFSLTNYGVHWIRQAPGKGLEWLGVIWSGGNTDYNTPFTSRFTITKDNSKNQVYFKLRSVRADDTAIYYCARALTYYDYEFAYWGQGTLVTVSSGGGGSGGGGSEVQLVESGGGLVQPGGSLRLSCAASGFTISTNAMSWVRQAPGKGLEWIGVITGRDITYYASWAKGRFTISRDNSKNTLYLQMNSLRAEDTAVYYCARDGGSSAITSNNIWGQGTLVTVSSASTKGPSVFPLAPSSKSTSGGTAALGCLVKDYFPEPVTVSWNSGALTSGVHTFPAVLQSSGLYSLSSVVTVPSSSLGTQTYICNVNHKPSNTKVDKRVEPKSCDKTHTCPPCPAPEAAGGPSVFLFPPKPKDTLMISRTPEVTCVVVDVSHEDPEVKFNWYVDGVEVHNAKTKPREEQYNSTYRVVSVLTVLHQDWLNGKEYKCAVSNKALPAPIEKTISKAKGQPREPQVYTLPPSRDELTKNQVSLSCAVKGFYPSDIAVEWESNGQPENNYKTTPPVLDSDGSFFLVSKLTVDKSRWQQGNVFSCSVMHEALHNHYTQKSLSLSPG
chain 2: QSALTQPASVSGSPGQSITISCTGTSSDVGGYNFVSWYQQHPGKAPKLMIYDVSDRPSGVSDRFSGSKSGNTASLIISGLQADDEADYYCSSYGSSSTHVIFGGGTKVTVLGGGGSGGGGSGGGGSGGGGSQVQLQESGGGLVKPGGSLSLSCAASGFTFSSYWMSWVRQAPGKGLEWVANINRDGSASYYVDSVKGRFTISRDDAKNSLYLQMNSLRAEDTAVYYCARDRGVGYFDLWGRGTLVTVSSGGGGSGGGGSDVVMTQSPSTLSASVGDRVTINCQASESISSWLAWYQQKPGKAPKLLIYEASKLASGVPSRFSGSGSGTEFTLTISSLQPDDFATYYCQGYFYFISRTYVNSFGGGTKVEIKRTVAAPSVFIFPPSDEQLKSGTASVVCLLNNFYPREAKVQWKVDNALQSGNSQESVTEQDSKDSTYSLSSTLTLSKADYEKHKVYACEVTHQGLSSPVTKSFNRGECGGDKTHTCPPCPAPEAAGGPSVFLFPPKPKDTLMISRTPEVTCVVVDVSHEDPEVKFNWYVDGVEVHNAKTKPREEQYNSTYRVVSVLTVLHQDWLNGKEYKCAVSNKALPAPIEKTISKAKGQPREPQVYTLPPSRDELTKNQVSLWCLVKGFYPSDIAVEWESNGQPENNYKTTPPVLDSDGSFFLYSKLTVDKSRWQQGNVFSCSVMHEALHNRFTQKSLSLSPGGGGGSGGGGSDIQMTQSPSTLSASVGDRVTITCQASQSISSHLNWYQQKPGKAPKLLIYKASTLASGVPSRFSGSGSGTEFTLTISSLQPDDFATYYCQQGYSWGNVDNVFGGGTKVTVLGGGGSGGGGSGGGGSGGGGSEVQLLESGGGLVQPGGSLSLSCAASGFSFSSGYDMCWVRQAPGKGLEWIACIAAGSAGITYDANWAKGRFTISRDNSKNTLYLQMNSLRAEDTAVYYCARSAFSFDYAMDLWGQGTLVTVSS
notes: tetra-miniGNC; D1 αEGFR, D2 αHER3, D3 αCD3 (Fab), D5 αPD-L1; also called tetra-miniGNC (SI-75E2)

Tests used:
Assay in all cases: BLI (Octet), binder on AHC sensor, 100 nM human antigen, 1:1 fit
[1] = biological target: T1, human EGFR (human, UniProt P00533 25-645, limits assumed)
T1 construct: Soluble antigen in Octet; construct not described

[2] = biological target: T2, human 4-1BB (human, UniProt Q07011 24-186, limits assumed)
T2 construct: Soluble antigen in Octet; construct not described

[3] = biological target: T3, human PD-L1 (human, UniProt Q9NZQ7 19-238)
T3 construct: Soluble antigen in Octet; bought; also called human PD-L1 (Acro PD1-H5229)

[4] = biological target: T4, human CD3 (human, UniProt P07766 23-126; P04234 22-105)
T4 construct: also called His-tagged human CD3; human CD3 (Acro CDD-H52W1)

[5] = biological target: T5, human HER3 (human, UniProt P21860 20-643)
T5 construct: Soluble antigen in Octet; bought; also called human HER3 (Acro ER3-H5223)

Row | Binder | Kd [1] [nM] | Kd [2] [nM] | Kd [3] [nM] | Kd [4] [nM] | Kd [5] [nM]
1 | B1 | 5.56 | 37.3 | 1.45 | 36.2 | 
2 | B2 | 8.24 |  | 1.36 | 22.1 | 114
